Measured values published in publication PMC2661964, “Mammalian Kinesin-3 Motors Are Dimeric In Vivo and Move by Processive Motility upon Release of Autoinhibition” (PLoS Biology, 2009).

Biological target: the molecule itself
Test: cross-linking; lysates of transfected COS cells in borate buffer (50 mM NaBorate, 100 mM potassium acetate, 2 mM MgCl2, 1 mM EGTA, 1% Triton X-100, pH 8.57), 20 mM DMP for 30 min or untreated; SDS-PAGE, immunoblot

Protein	stoichiometry N
KIF1A(1–393)-mCit (domain or fragment, rat, UniProt F1M4A4 1-393, looked up, full NC and several residues of the hinge; Plasmid was a gift from Gary Banker; source: COS cells, transfected, in lysate; not shown: mCit (monomeric citrine), C-terminal, kept) MAGASVKVAVRVRPFNSREMSRDSKCIIQMSGSTTTIVNPKQPKETPKSFSFDYSYWSHTSPEDINYASQKQVYRDIGEEMLQHAFEGYNVCIFAYGQTGAGKSYTMMGKQEKDQQGIIPQLCEDLFSRINDTTNDNMSYSVEVSYMEIYCERVRDLLNPKNKGNLRVREHPLLGPYVEDLSKLAVTSYNDIQDLMDSGNKARTVAATNMNETSSRSHAVFNIIFTQKRHDAETNITTEKVSKISLVDLAGSERADSTGAKGTRLKEGANINKSLTTLGKVISALAEMDSGPNKNKKKKKTDFIPYRDSVLTWLLRENLGGNSRTAMVAALSPADINYDETLSTLRYADRAKQIRCNAIINEDPNNKLIRELKDEVTRLRDLLYAQGLGDITD	2
KIF1A(1–726)-mCit (domain or fragment, rat, UniProt F1M4A4 1-726, looked up, source: COS cells, transfected, in lysate; not shown: mCit (monomeric citrine), C-terminal, kept) MAGASVKVAVRVRPFNSREMSRDSKCIIQMSGSTTTIVNPKQPKETPKSFSFDYSYWSHTSPEDINYASQKQVYRDIGEEMLQHAFEGYNVCIFAYGQTGAGKSYTMMGKQEKDQQGIIPQLCEDLFSRINDTTNDNMSYSVEVSYMEIYCERVRDLLNPKNKGNLRVREHPLLGPYVEDLSKLAVTSYNDIQDLMDSGNKARTVAATNMNETSSRSHAVFNIIFTQKRHDAETNITTEKVSKISLVDLAGSERADSTGAKGTRLKEGANINKSLTTLGKVISALAEMDSGPNKNKKKKKTDFIPYRDSVLTWLLRENLGGNSRTAMVAALSPADINYDETLSTLRYADRAKQIRCNAIINEDPNNKLIRELKDEVTRLRDLLYAQGLGDITDTNTVPGGPKLTNALVGMSPSSSLSALSSRAASVSSLHERILFAPGSEEAIERLKETEKIIAELNETWEEKLRRTEAIRMEREALLAEMGVAMREDGGTLGVFSPKKTPHLVNLNEDPLMSECLLYYIKDGVTRVGREDAERRQDIVLSGHFIKEEHCIFRSDSRGGGEAVVTLEPCEGADTYVNGKKVTEPSILRSGNRIIMGKSHVFRFNHPEQARQERERTPCAETPAEPVDWAFAQRELLEKQGIDMKQEMEQRLQELEDQYRREREEATYLLEQQRLDYESKLEALQKQMDSRYYPEVNEEEEEPEDEVQWTERECELALWAFRKWKWY	2
Myc-KIF1A (natural protein, rat, UniProt F1M4A4 1-1707, looked up, KIF1A (Kinesin-3 motor), rat, full length; Cloned into pRK5-Myc; also called Myc-tagged KIF1A; FL KIF1A; source: COS cells, transfected, in lysate) MAGASVKVAVRVRPFNSREMSRDSKCIIQMSGSTTTIVNPKQPKETPKSFSFDYSYWSHTSPEDINYASQKQVYRDIGEEMLQHAFEGYNVCIFAYGQTGAGKSYTMMGKQEKDQQGIIPQLCEDLFSRINDTTNDNMSYSVEVSYMEIYCERVRDLLNPKNKGNLRVREHPLLGPYVEDLSKLAVTSYNDIQDLMDSGNKARTVAATNMNETSSRSHAVFNIIFTQKRHDAETNITTEKVSKISLVDLAGSERADSTGAKGTRLKEGANINKSLTTLGKVISALAEMDSGPNKNKKKKKTDFIPYRDSVLTWLLRENLGGNSRTAMVAALSPADINYDETLSTLRYADRAKQIRCNAIINEDPNNKLIRELKDEVTRLRDLLYAQGLGDITDTNTVPGGPKLTNALVGMSPSSSLSALSSRAASVSSLHERILFAPGSEEAIERLKETEKIIAELNETWEEKLRRTEAIRMEREALLAEMGVAMREDGGTLGVFSPKKTPHLVNLNEDPLMSECLLYYIKDGVTRVGREDAERRQDIVLSGHFIKEEHCIFRSDSRGGGEAVVTLEPCEGADTYVNGKKVTEPSILRSGNRIIMGKSHVFRFNHPEQARQERERTPCAETPAEPVDWAFAQRELLEKQGIDMKQEMEQRLQELEDQYRREREEATYLLEQQRLDYESKLEALQKQMDSRYYPEVNEEEEEPEDEVQWTERECELALWAFRKWKWYQFTSLRDLLWGNAIFLKEANAISVELKKKVQFQFVLLTDTLYSPLPPDLLPPEAAKDRETRPFPRTIVAVEVQDQKNGATHYWTLEKLRQRLDLMREMYDRAAEVPSSVVEDCDNVVTGGDPFYDRFPWFRLVGRAFVYLSNLLYPVPLVHRVAIVSEKGEVKGFLRVAVQAISADEEAPDYGSGVRQSGTAKISFDDQHFEKFQSESCPVVGMSRSGTSQEELRIVEGQGQGADAGPSADEVNNNTCSAVPPEGLLDSPEKAALDGPLDTALDHLRLGSTFTFRVTVLQASSISAEYADIFCQFNFIHRHDEAFSTEPLKNTGRGPPLGFYHVQNIAVEVTKSFIEYIKSQPIVFEVFGHYQQHPFPPLCKDVLSPLRPSRRHFPRVMPLSKPVPATKLSTMTRPSPGPCHCKYDLLVYFEICELEANGDYIPAVVDHRGGMPCMGTFLLHQGIQRRITVTLLHETGSHIRWKEVRELVVGRIRNTPETDEALIDPNILSLNILSSGYVHPAQDDRQFLDSDIPRTFYQFEAAWDSSMHNSLLLNRVTPYREKIYMTLSAYIEMENCTQPAVITKDFCMVFYSRDAKLPASRSIRNLFGSGSLRATEGNRVTGVYELSLCHVADAGSPGMQRRRRRVLDTSVAYVRGEENLAGWRPRSDSLILDHQWELEKLSLLQEVEKTRHYLLLREKLETTQRPVPEVLSPASSEDSESRSSSGASSPLSAEGQPSPLEVPNERQRELAVKCLRLLMHTFNREYTHSHVCISASESKLSEMSVTLMRDPSMSPLGAATLTPSSTCPSLIEGRYGATDVRTPQPCSRPASPEPELLPELDSKKTPSPVRATETEKEPQRLLVPDIQEIRVSPIVSKKGYLHFLEPHTAGWAKRFVVVRRPYAYMYNSDKDTVERFVLNLSTAQVEYSEDQQAMLKTPNTFAVCTEHRGILLQANSDKDMHDWLYAFNPLLAGTIRSKLSRRRSAQMRV	~2
mCit-KIF1A (natural protein, rat, UniProt F1M4A4 1-1707, looked up, KIF1A (Kinesin-3 motor), rat, full length; also called mCit-tagged KIF1A; FL KIF1A; source: COS cells, transfected; in lysate and in live cells; not shown: mCit (monomeric citrine), N-terminal, kept) MAGASVKVAVRVRPFNSREMSRDSKCIIQMSGSTTTIVNPKQPKETPKSFSFDYSYWSHTSPEDINYASQKQVYRDIGEEMLQHAFEGYNVCIFAYGQTGAGKSYTMMGKQEKDQQGIIPQLCEDLFSRINDTTNDNMSYSVEVSYMEIYCERVRDLLNPKNKGNLRVREHPLLGPYVEDLSKLAVTSYNDIQDLMDSGNKARTVAATNMNETSSRSHAVFNIIFTQKRHDAETNITTEKVSKISLVDLAGSERADSTGAKGTRLKEGANINKSLTTLGKVISALAEMDSGPNKNKKKKKTDFIPYRDSVLTWLLRENLGGNSRTAMVAALSPADINYDETLSTLRYADRAKQIRCNAIINEDPNNKLIRELKDEVTRLRDLLYAQGLGDITDTNTVPGGPKLTNALVGMSPSSSLSALSSRAASVSSLHERILFAPGSEEAIERLKETEKIIAELNETWEEKLRRTEAIRMEREALLAEMGVAMREDGGTLGVFSPKKTPHLVNLNEDPLMSECLLYYIKDGVTRVGREDAERRQDIVLSGHFIKEEHCIFRSDSRGGGEAVVTLEPCEGADTYVNGKKVTEPSILRSGNRIIMGKSHVFRFNHPEQARQERERTPCAETPAEPVDWAFAQRELLEKQGIDMKQEMEQRLQELEDQYRREREEATYLLEQQRLDYESKLEALQKQMDSRYYPEVNEEEEEPEDEVQWTERECELALWAFRKWKWYQFTSLRDLLWGNAIFLKEANAISVELKKKVQFQFVLLTDTLYSPLPPDLLPPEAAKDRETRPFPRTIVAVEVQDQKNGATHYWTLEKLRQRLDLMREMYDRAAEVPSSVVEDCDNVVTGGDPFYDRFPWFRLVGRAFVYLSNLLYPVPLVHRVAIVSEKGEVKGFLRVAVQAISADEEAPDYGSGVRQSGTAKISFDDQHFEKFQSESCPVVGMSRSGTSQEELRIVEGQGQGADAGPSADEVNNNTCSAVPPEGLLDSPEKAALDGPLDTALDHLRLGSTFTFRVTVLQASSISAEYADIFCQFNFIHRHDEAFSTEPLKNTGRGPPLGFYHVQNIAVEVTKSFIEYIKSQPIVFEVFGHYQQHPFPPLCKDVLSPLRPSRRHFPRVMPLSKPVPATKLSTMTRPSPGPCHCKYDLLVYFEICELEANGDYIPAVVDHRGGMPCMGTFLLHQGIQRRITVTLLHETGSHIRWKEVRELVVGRIRNTPETDEALIDPNILSLNILSSGYVHPAQDDRQFLDSDIPRTFYQFEAAWDSSMHNSLLLNRVTPYREKIYMTLSAYIEMENCTQPAVITKDFCMVFYSRDAKLPASRSIRNLFGSGSLRATEGNRVTGVYELSLCHVADAGSPGMQRRRRRVLDTSVAYVRGEENLAGWRPRSDSLILDHQWELEKLSLLQEVEKTRHYLLLREKLETTQRPVPEVLSPASSEDSESRSSSGASSPLSAEGQPSPLEVPNERQRELAVKCLRLLMHTFNREYTHSHVCISASESKLSEMSVTLMRDPSMSPLGAATLTPSSTCPSLIEGRYGATDVRTPQPCSRPASPEPELLPELDSKKTPSPVRATETEKEPQRLLVPDIQEIRVSPIVSKKGYLHFLEPHTAGWAKRFVVVRRPYAYMYNSDKDTVERFVLNLSTAQVEYSEDQQAMLKTPNTFAVCTEHRGILLQANSDKDMHDWLYAFNPLLAGTIRSKLSRRRSAQMRV	~2
